Measured values: patent US20120046217A1 (SUNGKYUNKWAN UNIVERSITY FOUNDATION FOR CORPORATE …, published 2012)
Values belong to the binder of their own block, whether it stands above or below them.

Molecular target: T1, Flag-TNFR1 (UniProt P19438 30-455, limits assumed)
T1 construct: whole, on cells; The receptor sat on the membrane of transfected HEK293 cells; not shown: Flag tag
T1 sequence (looked up): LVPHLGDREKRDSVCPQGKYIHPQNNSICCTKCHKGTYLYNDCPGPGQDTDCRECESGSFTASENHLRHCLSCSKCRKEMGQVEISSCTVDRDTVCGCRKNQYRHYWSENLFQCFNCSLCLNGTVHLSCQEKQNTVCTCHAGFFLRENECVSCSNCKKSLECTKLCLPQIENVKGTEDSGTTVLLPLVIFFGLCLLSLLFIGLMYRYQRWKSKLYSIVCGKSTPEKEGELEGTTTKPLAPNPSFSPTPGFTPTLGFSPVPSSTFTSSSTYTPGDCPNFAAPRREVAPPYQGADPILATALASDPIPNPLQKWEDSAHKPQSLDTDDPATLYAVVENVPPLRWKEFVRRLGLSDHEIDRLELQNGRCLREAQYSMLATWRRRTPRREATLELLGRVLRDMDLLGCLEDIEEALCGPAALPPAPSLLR
Test: co-immunoprecipitation of truncated mutants co-transfected with TNFR1
Protocol: The cells were washed with RIPA buffer, and protein-A/G-agarose beads (Santa Cruz) were added in an amount of 20 μL/tube to perform immunoprecipitation. According to the molecular weights of the truncated mutants, […] 15% SDS-PAGE gel electrophoresis was carried out, followed by Western blotting with an Myc antibody (FIG. 9).

binding result: no binding
B1: truncated mutant consisting of an IGFBP5 N-terminal domain (other)
chain: LGSFVHCEPCDEKALSMCPPSPLGCELVKEPGCGCCMTCALAEGQSCGVYTERCAQGLRCLPRQDEEKPLHALLHGRGVC
notes: not shown: Myc tag from vector pSecTaq2/Hygro A

binding result: no binding
B2: truncated mutant consisting of an IGFBP5 C-terminal domain (other)
chain: QGPCRRHMEASLQELKASPRMVPRAVYLPNCDRKGFYKRKQCKPSRGRKRGICWCVDKYGMKLPGMEYVDGDFQCHTFDSSNVE
notes: as for B1
